Data set [1] can be described thus: Water solubility / aggregation of probes in water (LLS, PL). Type of data set: physicochemical. The following applies: inferred from weak fluorescence / LLS. The source says:
FIG. 32A illustrates the UV-vis absorption spectra of BATPS (5) and TPS-2cRGD. Both have a similar absorption profile with the maximum at 356 nm. The corresponding photoluminescence (PL) spectra are shown in FIG. 32B, along with the photographs taken under UV irradiation. It is known that AIE fluorogens are virtually non-fluorescent in good solvents but emit intensely when aggregated in poor solvents.
It is well known that AIE dye is virtually non-luminescent in good solvents but emits intensely when aggregated in its poor solvents. […] The excited states are readily annihilated by the intramolecular rotations of phenyl rings. Therefore, very low fluorescence was observed.

A further data set deals with T1, caspase-3 (Homo sapiens, UniProt P42574).
T1 construct: purchased R&D Systems
T1 sequence (P42574 29-175 limits assumed): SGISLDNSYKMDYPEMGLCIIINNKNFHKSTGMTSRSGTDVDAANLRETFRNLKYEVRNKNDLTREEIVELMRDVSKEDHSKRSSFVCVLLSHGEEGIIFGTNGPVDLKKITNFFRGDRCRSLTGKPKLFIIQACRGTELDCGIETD
T1 sequence (P42574 176-277 limits assumed): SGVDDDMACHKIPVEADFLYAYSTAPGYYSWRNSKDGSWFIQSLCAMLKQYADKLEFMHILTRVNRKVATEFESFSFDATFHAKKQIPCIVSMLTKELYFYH
As to the kind of experiment: Caspase-3 turn-on and hydrolysis of E/Z-TPE-2DEVD. Format: biochemical. As for the experimental part: Both have a similar absorption profile with an obvious absorbance in the 270-380 nm range.
The enzyme kinetic studies by incubating recombinant caspase-3 with E/Z-TPE-2DEVD in buffer at 37° C. were subsequently performed, and the changes in probe hydrolysis were monitored with HPLC. DMSO stock solutions of TPE-2DEVD were diluted with caspase-3assay buffer (50 mM PIPES, 100 mM NaCl, 1 mM EDTA, 0.1% w/v CHAPS, 25% w/v sucrose, pH=7.2) to make 10 μM working solutions. 5 μL of the recombinant caspase-3 (˜0.04 μg/μL stock solution in assay buffer) was added into the above working solution. The reaction mixture was incubated at room temperature for 60 min and was then diluted to a total of 300 μL with deionized water for photoluminescence measurement. The solution was excited at 312 nm, and the emission was collected from 360 to 600 nm.

Data set [2] deals with caspase-3, pepsin, BSA, trypsin, papain and lysozyme. The following applies: protein 100 pM, identical conditions. As for the experimental part:
To further investigate the probe selectivity, Z-TPE-2DEVD was treated with several proteins, such as caspase-3, pepsin, BSA, trypsin, papain and lysozyme, under identical conditions.

“Z-TPE-2DEVD: stereoisomer of Asp-Glu-Val-Asp (DEVD) peptide-conjugated TPE probe (TPE-2DEVD)”: the solubility in water result in data set [1] is recorded as “good solubility in water”. Besides, the “fluorescence turn-on with caspase-3” value with caspase-3 (10 μM probe, PIPES buffer, caspase-3 100 pM, 37° C.) is given as “stronger fluorescence enhancement”. Further, the “rate of enzyme activated hydrolysis (HPLC)” value in the data set with caspase-3 (recombinant caspase-3 in buffer) is reported as “slower hydrolysis rate”. Moreover, the “probe selectivity, changes in (I−I0)/I0” value in data set [2] is “specific probe for caspase-3”.

Source of the values: patent US10753941B2, “Biocompatible nanoparticles with aggregation induced emission characteristics as fluorescent bioprobes and methods of using the same for in vitro and in vivo imaging” (The Hong Kong University of Science and Technology, priority 2011, dated 2020).
